The record followed here is patent US5877009, “Isolated ApoA-I gene regulatory sequence elements” (Trustees of Boston University).

Data set [1] concerns the target T1, C/EBP (C/EBPalpha) (Rattus norvegicus, UniProt P05554 P05554:1-358). Nature of the data set: EMSA. The settings on record: tags: E. coli pT7-7, about 40 kDa, chain copies: 2.
Data set [2] has as its target T1, C/EBP (C/EBPalpha). Nature of the data set: EMSA; C/EBP-BA3 complex. The following applies: tags: E. coli pT7-7, about 40 kDa; chain copies: 2; label: 32P.
Data set [3] has as its target T1, C/EBP (C/EBPalpha). Nature of the data set: EMSA; text cites SEQ ID NO:41, Table 3 lists AlbD as SEQ ID NO:47. The following applies: tags: E. coli pT7-7, about 40 kDa; chain copies: 2; label: 32P.

T1 sequence (P05554 whole entry, one chain of several): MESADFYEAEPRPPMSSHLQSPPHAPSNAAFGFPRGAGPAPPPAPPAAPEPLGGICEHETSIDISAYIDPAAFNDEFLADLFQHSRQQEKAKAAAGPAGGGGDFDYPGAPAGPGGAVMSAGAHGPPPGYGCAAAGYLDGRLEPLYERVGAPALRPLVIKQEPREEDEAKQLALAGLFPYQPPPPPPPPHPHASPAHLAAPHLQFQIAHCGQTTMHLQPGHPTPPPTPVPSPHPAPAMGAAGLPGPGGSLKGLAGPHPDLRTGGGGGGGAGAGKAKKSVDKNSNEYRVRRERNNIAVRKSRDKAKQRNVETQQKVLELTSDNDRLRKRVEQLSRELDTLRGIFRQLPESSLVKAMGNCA

B1: apoA-II element K (-760 to -743) (dsDNA)
DNA 1: TAAGGTGATCAAATGACC
DNA 2: GGTCATTTGATCACCTTA
As for B1, the binding result in the data set with C/EBP (C/EBPalpha) [1] is on record as “no binding”.

B2: BA3 apoB -78 to -48 (dsDNA)
DNA 1: GCCCTTTGGACCTTTTGCAATCCTGGCGCT
DNA 2: AGCGCCAGGATTGCAAAAGGTCCAAAGGGC
As for B2, in the data set with C/EBP (C/EBPalpha) [2], the binding result is listed as “binds”.

B3: CIIIB(WT) apoCIII -92 to -67 (dsDNA)
DNA 1: GGTCAGCAGGTGACCTTTGCCCAGCG
DNA 2: CGCTGGGCAAAGGTCACCTGCTGACC
For B3, the binding result with C/EBP (C/EBPalpha) [1] (label: 32P, GGG/CCC 5' overhangs) is recorded as “no binding”.

B4: Albumin D C/EBP site (AlbD, -115 to -90) (dsDNA)
DNA 1: TGGTATGATTTTGTAATGGGGTAGGA
DNA 2: TCCTACCCCATTACAAAATCATACCA
For the molecule B4, the binding result in the data set with C/EBP (C/EBPalpha) [3] was “binds”.
